Measurements reported in paper PMC9706453, “Abscisic acid-responsive transcription factors PavDof2/6/15 mediate fruit softening in sweet cherry”.

What was measured:
Experiment in all cases: EMSA; Light Shift Chemiluminescent EMSA Kit (Beyotime); buffer, salt, pH and temperature not stated
Conditions in all cases: protein: recombinant; tags: His (pET-30a(+)); label: biotin
PavDof2 = target: T1, PavDof2 (Prunus avium (sweet cherry), UniProt A0A6P5T378 1-263)
T1 sequence: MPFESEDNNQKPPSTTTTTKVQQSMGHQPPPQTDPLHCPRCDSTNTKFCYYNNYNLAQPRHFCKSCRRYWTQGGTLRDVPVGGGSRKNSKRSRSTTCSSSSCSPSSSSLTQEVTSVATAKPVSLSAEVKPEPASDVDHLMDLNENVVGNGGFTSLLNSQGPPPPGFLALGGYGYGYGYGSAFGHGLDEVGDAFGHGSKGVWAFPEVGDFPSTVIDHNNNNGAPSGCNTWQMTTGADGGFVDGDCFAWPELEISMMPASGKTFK

PavDof6 = target: T2, PavDof6 (Prunus avium (sweet cherry), UniProt A0A6P5RUY3 1-310)
T2 sequence: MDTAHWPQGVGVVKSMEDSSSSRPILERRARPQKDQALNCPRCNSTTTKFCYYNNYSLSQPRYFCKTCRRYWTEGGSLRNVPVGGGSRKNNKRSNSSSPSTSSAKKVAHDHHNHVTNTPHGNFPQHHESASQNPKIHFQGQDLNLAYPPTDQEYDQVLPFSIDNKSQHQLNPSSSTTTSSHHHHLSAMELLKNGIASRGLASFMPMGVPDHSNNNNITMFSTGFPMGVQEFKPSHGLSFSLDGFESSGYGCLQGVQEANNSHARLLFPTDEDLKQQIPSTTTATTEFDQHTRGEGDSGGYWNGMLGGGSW

PavDof15 = target: T3, PavDof15 (Prunus avium (sweet cherry), UniProt A0A6P5S8Z2 1-327)
T3 sequence: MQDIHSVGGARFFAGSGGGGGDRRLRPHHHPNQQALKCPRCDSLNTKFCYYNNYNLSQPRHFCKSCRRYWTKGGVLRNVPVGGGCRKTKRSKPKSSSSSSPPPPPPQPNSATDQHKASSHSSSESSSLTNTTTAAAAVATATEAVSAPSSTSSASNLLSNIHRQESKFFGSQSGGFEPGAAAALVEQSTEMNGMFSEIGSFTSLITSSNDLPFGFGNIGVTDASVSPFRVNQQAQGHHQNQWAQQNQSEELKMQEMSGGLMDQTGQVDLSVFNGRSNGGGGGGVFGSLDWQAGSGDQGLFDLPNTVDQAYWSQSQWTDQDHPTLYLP

Measured: binding result

B1: PavPME44 promoter probe (dsDNA)
DNA 1: CTGCTTTTCTGAAAATTAAAGCAGTTTGGAGAAAAGTCC
DNA 2: GGACTTTTCTCCAAACTGCTTTAATTTTCAGAAAAGCAG
binds: all assays above

B2: PavNCED1 promoter probe (Dof site) (dsDNA)
DNA 1: CTCAAAAGCTAGTTATATGGAAAAAGGGA
DNA 2: TCCCTTTTTCCATATAACTAGCTTTTGAG
binds: all assays above

B3: PavQRT3 promoter probe (dsDNA)
DNA 1: TTGAAAAGTTAGGAAAAAAGTTT
DNA 2: AAACTTTTTTCCTAACTTTTCAA
binds: all assays above

B4: PavXTH31 promoter probe (dsDNA)
DNA 1: TGCTTTTTTTTTTTTAAAGGATT
DNA 2: AATCCTTTAAAAAAAAAAAAGCA
binds: all assays above

B5: PavPL18 promoter probe (dsDNA)
DNA 1: CATAAAAAGAAATAAAATGAAAAGAAAAGTGA
DNA 2: TCACTTTTCTTTTCATTTTATTTCTTTTTATG
binds: all assays above

B6: PavXTH26 promoter probe (dsDNA)
DNA 1: AACATTCTTTTTGTAAATCAAGTAGTTAAAAGCATTTAC
DNA 2: GTAAATGCTTTTAACTACTTGATTTACAAAAAGAATGTT
binds: all assays above
